From patent publication US20200123264A1 (Regeneron, published 2020)
Values belong to the binder of their own block, whether it stands above or below them.

Experiments:
[1] = biological target: T1, full-length human LEPR on IMR-32/STAT3-Luc/hLEPR cells (human, UniProt P48357 22-1165); assay: cell-based or functional assay
T1 sequence (looked up): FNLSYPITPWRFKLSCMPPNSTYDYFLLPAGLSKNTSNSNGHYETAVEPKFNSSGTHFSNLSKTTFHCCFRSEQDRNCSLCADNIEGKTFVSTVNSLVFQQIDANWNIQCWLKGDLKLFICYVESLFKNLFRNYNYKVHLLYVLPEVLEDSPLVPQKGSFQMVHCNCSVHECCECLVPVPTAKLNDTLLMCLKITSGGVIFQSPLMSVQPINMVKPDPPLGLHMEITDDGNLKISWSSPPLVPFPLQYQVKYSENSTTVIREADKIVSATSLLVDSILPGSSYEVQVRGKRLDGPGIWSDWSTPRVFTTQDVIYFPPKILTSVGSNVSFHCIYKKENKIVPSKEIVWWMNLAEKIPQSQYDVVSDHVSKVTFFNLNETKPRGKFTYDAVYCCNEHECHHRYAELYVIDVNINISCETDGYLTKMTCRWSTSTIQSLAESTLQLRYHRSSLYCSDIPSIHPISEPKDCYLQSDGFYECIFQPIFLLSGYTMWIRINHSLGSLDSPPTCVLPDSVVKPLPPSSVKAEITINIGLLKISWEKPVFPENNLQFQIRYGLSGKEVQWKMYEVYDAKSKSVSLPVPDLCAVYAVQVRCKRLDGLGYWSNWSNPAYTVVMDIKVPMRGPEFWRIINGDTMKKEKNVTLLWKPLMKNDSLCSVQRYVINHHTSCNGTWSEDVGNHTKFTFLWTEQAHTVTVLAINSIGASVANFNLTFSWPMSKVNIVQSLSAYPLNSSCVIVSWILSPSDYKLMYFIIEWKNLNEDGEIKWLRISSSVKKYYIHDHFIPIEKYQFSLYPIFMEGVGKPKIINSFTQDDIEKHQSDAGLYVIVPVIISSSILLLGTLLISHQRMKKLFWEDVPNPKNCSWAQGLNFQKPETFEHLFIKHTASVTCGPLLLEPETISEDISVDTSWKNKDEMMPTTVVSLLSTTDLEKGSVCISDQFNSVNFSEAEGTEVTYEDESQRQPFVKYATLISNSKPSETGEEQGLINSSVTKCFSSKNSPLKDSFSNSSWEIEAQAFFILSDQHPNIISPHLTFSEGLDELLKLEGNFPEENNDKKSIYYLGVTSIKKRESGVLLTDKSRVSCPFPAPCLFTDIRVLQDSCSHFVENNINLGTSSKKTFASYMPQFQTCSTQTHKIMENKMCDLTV

[2] = biological target: T2, recombinant human LEPR extracellular domain expressed with a C-terminal myc-myc-hexahistidine tag (human, UniProt P48357 22-839); assay: Luminex, myc-captured LEPR protein on beads, Ab 0.5 µg/mL
T2 construct: Monomeric construct; also called hLEPR.MMH; hLEPR-MMH
Procedure: (§1) Aliquots of microspheres with immobilized anti-myc monoclonal antibodies, prepared as described above, were added individually to 1 mL of the each of these protein supernatants. The microspheres were gently mixed, incubated for two hours at 25° C., washed twice with 1 mL of DBPS, centrifuged to remove the supernatant and finally resuspended in 1 mL of DPBS buffer. Forty eight μL of anti-myc IgG coupled microspheres from individual reactions with full length human LEPR and with each of the human LEPR domain proteins were withdrawn and mixed together in 3.6 mL of PBS+20 mg/mL BSA+0.05% sodium azide (blocking buffer).
(§2) From this mixed pool, 75 μL of microspheres were plated per well on a 96 well filter plate (Millipore, Cat. No: MSBVN1250) and mixed with 25 μL of individual anti-human LEPR monoclonal antibodies (0.5 or 5 μg/mL), incubated for two hours at 25° C. and then washed twice with 200 μL of DPBS with 0.05% Tween 20 (washing buffer). […] After 30 minutes, the samples were washed twice with 200 μL of washing buffer and resuspended in 150 μL of wash buffer. The Median Fluorescence intensity (MFI) of the microspheres was measured in a Luminex Analyzer.

[3] = biological target: T3, human LEPR CRH1 (D1)-MMH (human, UniProt P48357 22-229, limits assumed); assay: as above
T3 construct: domain: CRH1 (D1); Transiently expressed, captured from supernatant on anti-myc beads
T3 sequence (looked up): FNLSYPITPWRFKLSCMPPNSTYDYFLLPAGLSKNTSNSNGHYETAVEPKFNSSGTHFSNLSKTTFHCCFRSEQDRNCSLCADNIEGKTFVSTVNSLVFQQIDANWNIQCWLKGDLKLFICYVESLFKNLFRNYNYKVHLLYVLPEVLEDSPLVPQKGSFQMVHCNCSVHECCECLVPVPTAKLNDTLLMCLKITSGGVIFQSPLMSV
Procedure: as §1, §2

[4] = biological target: T4, human LEPR Ig (D3)-MMH (human, UniProt P48357 340-427, limits assumed); assay: as above
T4 construct: domain: Ig (D3); Transiently expressed, captured from supernatant on anti-myc beads
T4 sequence (looked up): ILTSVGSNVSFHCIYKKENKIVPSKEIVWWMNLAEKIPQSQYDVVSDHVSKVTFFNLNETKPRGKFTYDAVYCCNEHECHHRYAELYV
Procedure: as §1, §2

[5] = biological target: T5, human LEPR FNIII-MMH (human, UniProt P48357 636-839, limits assumed); assay: as above
T5 construct: domain: FNIII; Transiently expressed, captured from supernatant on anti-myc beads
T5 sequence (looked up): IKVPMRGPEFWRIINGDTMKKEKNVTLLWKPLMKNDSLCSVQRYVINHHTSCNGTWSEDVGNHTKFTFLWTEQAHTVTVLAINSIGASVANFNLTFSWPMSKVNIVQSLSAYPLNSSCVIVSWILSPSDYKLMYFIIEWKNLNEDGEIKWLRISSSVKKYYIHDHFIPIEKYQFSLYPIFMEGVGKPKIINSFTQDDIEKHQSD
Procedure: as §1, §2

% activation, IMR-32/LEPR without human Leptin [1]: 6% | % inhibition, IMR-32/LEPR with 200 pM human Leptin [1]: 100% | EC50 (M), IMR-32/LEPR without human Leptin (STAT3-Luc) [1]: 1.3e-10 M | IC50 (M), IMR-32/LEPR with 200 pM human Leptin [1]: 2.9e-09 M
B2: H4H18464P2 (antibody, human IgG4, V domains shown)
VH: QVQLVQSGPEVKKPGASVKVSCKGSGYTFSWYGISWIRQAPGHGLEWMGWISASSGNTRFAQKVQGRLTMTTDTSTSTAYMELRSLRSDDTAVYYCARTGTRPFDYWGQGTLVTVSS
VL: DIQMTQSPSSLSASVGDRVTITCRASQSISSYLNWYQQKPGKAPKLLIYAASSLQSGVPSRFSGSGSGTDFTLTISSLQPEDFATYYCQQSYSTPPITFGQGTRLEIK
notes: H4H prefix: human IgG4 Fc

Luminex MFI [2]: 3610 MFI | Luminex MFI [3]: 615 MFI | Luminex MFI [4]: 10 MFI | Luminex MFI [5]: 229 MFI
B4: H4H18462P2 (antibody, human IgG4, V domains shown)
VH: EVQLVESGGDLVQPGRSLRLSCAASGFTFSSFAMSWVRQAPGRGLEWVSSLSDSGDNTYYADSVKGRFTISRDNSKNTLYLQMNNLRAEDTAVYYCAKDLFSGWLFHGFDVWGQGTMVTVSS
VL: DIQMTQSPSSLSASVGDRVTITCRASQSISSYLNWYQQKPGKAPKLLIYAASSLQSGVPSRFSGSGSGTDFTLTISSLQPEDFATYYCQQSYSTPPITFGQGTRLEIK
notes: H4H prefix: human IgG4 Fc

Continued, binder first:

B1: H4H18457P2 (antibody, human IgG4, V domains shown)
VH: EVQLVESGGSVVRPGESLRLSCAASGFTFDDYGMSWVRQAPGKGLEWVSGISWNGGITVYADSVKGRFTVSRDNAKNSLYLQMNSLRAEDTALYHCARARYGGADYWGQGTLVTVSS
VL: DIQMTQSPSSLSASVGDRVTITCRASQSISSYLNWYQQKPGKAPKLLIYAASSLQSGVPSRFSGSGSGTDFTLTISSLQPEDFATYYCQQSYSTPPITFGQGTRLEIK
notes: H4H prefix: human IgG4 Fc
% inhibition, IMR-32/LEPR with 200 pM human Leptin [1]: 100% | IC50 (M), IMR-32/LEPR with 200 pM human Leptin [1]: 7.23e-10 M

B3: H4H18440P2 (antibody, human IgG4, V domains shown)
VH: QVQLVESGGGMVKPGGSLRLSCAASGFTFSDYYMSWIRQAPGKGLEWISHISITGSTIYYADSVKGRFTISRDNAKNSLYLEMNRLRDEDTAVYYCTRDEPDIVLVRYGMDVWGQGTTVTVSS
VL: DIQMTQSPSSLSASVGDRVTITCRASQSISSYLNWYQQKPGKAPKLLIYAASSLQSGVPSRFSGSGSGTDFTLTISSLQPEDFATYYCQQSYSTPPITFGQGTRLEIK
notes: H4H prefix: human IgG4 Fc
% activation, IMR-32/LEPR without human Leptin [1]: 4%
